Reference: the supplement of paper PMC10567573

B1: KLHL12 (parent)
chain: LDYTADEDGVWYSVAPMNVRRGLA
B2: KLHL13 (parent)
chain: GVSKVGLRKIIDFIYTAKLSLNMD

Variants of: B1
Test: protein stability index of a GFP-peptide fusion (GPS, HEK-293T) (PSI 1-6); higher = more stable
Conditions: c terminus: a fixed tail appended
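Also: lentivirally expressed fusions sorted by FACS into six bins by GFP to DsRed ratio, PSI derived from sequencing read proportions per bin multiplied by bin number.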

Protein stability index: each site, then its substitutions
D2: A 2.3, L 1.55, S 1.84, C 2.46, W 2.19, T 1.49, K 1.68, H 1.67, E 1.76, F 1.98, M 2.4, I 1.37, R 1.93, G 2.96, N 1.74, P 2.48, Q 1.47
L1: N 3.92, Q 4, P 3.41, E 3.53, R 2.99, T 3.18, Y 2.32, C 2.75, S 3.24, A 3.26, F 2.16, V 2.25, G 3.19, D 3.47, H 2.67, W 2.53, M 2.2, K 2.75, I 1.89

Variants of: B2
Test: as above
Conditions: c terminus: a fixed tail appended

Protein stability index of substitutions, site by site:
N22: H 2.41, Y 1.99, A 3.65, Q 1.9, I 2.68, P 4.34, S 2.36, R 2.09, L 2.11, F 3.75, E 2.73, D 2.3, V 1.32, M 2.26, W 1.31
A17: W 3.08, R 2.95, Y 3.45, V 1.56, S 1.75, E 1.81, P 2.39, K 2.73, G 3.4
S3: D 2.68, K 2.31, G 1.62, T 2.37, V 4.55, H 3.22, R 2.45, W 2.47, M 2.17, Y 3.66, Q 2.92
Y15: P 1.84, D 1.8, L 2.07, A 3.72, R 4.12, G 2.51, F 3.84, Q 1.36, T 2.52, N 4.89, M 2.48
G1: T 3.89, W 3.32, K 2.08, A 3.93, P 1.75, L 2.96, N 2.53, S 3.05, H 2.49, Q 2.05
K9: S 2.4, C 3.38, N 3.3, G 1.91, I 3.12, L 2.37, H 2.64, D 3.8, E 1.78, Y 2.81, Q 2.03, M 2.42, A 4.24, V 4.21
V2: Y 2.11, G 3.41, N 2.03, P 1.83, K 2.38, H 1.7, T 4.01, S 1.79, F 1.65, C 1.52, D 3.51
I11: D 2.14, P 1.97, M 3.33, S 1.89, L 3.57, G 2.63, A 1.87, N 2.24, E 2.1, K 4.1, Y 4.12, H 4.7, Q 1.61
G6: Q 2.4, V 3.71, L 4.85, K 2.84, E 1.47, N 2.05, P 2.12, Y 3.06, W 2.32, H 3.04, S 2.08, R 2.15, C 1.49
S20: H 2.7, L 2.67, A 3.46, N 3.26, P 2.25, K 3.46, I 2.04, E 4.11, W 1.85, V 1.96, Q 1.68, R 2.11
F13: H 2.62, E 1.43, C 2.83, D 1.7, G 2.41, P 2.22, Q 1.04, T 1.93, R 1.54, S 1.44, M 2.74, N 1.48, K 1.66, V 3.34
K18: S 3.44, R 2.63, N 2.17, H 2.72, Y 2.88, Q 3.22, C 2.46, T 2.15, G 2.55, M 2.52, W 2.7, P 2.89, L 1.76
K4: M 2.42, H 2.18, W 2.34, T 4.12, D 4.34, R 2.95, L 1.93, N 2.24, C 2.64, F 3.29, S 2.88, A 3.12, Y 1.85, E 2.77, I 1.94
D12: L 2.27, E 2.27, V 1.94, M 1.62, I 2.57, N 1.55, S 3.08, G 3.19, H 1.92, T 2.9, Q 2.36
I14: Y 2.27, H 1.34, A 2.38, M 3.04, D 1.86, Q 2.24, V 2.43, E 2.31, L 2.9, K 1.94, P 2.12, W 3.72, S 2.02, G 3.7, C 2.44, N 2.15
L7: Q 2.97, A 2.27, K 1.86, W 2.05, T 2.6, R 2.5, H 3.17, G 3.85, F 2.93, I 3.25, C 3.38, S 2.94
I10: T 2.02, A 2.04, D 1.55, C 1.53, N 1.63, R 2.74, Q 2.35, G 2.31, P 1.81, H 1.14, Y 3.8, S 4.37, K 2.98, E 1.48, W 4.2
V5: W 3.14, G 3.21, A 2.64, Y 2.06, N 3.8, S 3.47, R 3.04, P 2.58, M 2.27, T 4.05, E 1.83, C 2.67, L 2.12, F 4.57, Q 3.5, I 1.5
T16: G 2.86, V 1.81, W 1.79, I 2.72, P 2.57, R 2.69, H 1.63, E 1.95, M 1.95, Y 2.74
L21: P 1.86, C 2.69, D 1.8, N 1.83, A 1.94, F 2.21, Q 3.01, S 2.72, W 1.96, E 1.53
L19: T 2.95, D 1.36, Q 2.21, W 2.93, S 1.63, H 1.87, N 3.62, C 2.34, V 3.11
R8: W 3.31, D 3.02, C 2.46, G 2.07, E 1.49, K 4.72, A 5.37, H 2.07, P 1.92, M 1.69, L 4.65, I 2.55
D24: Y 2.2, F 2.82, Q 2.15, L 2.01, G 3.65, N 2.74, M 2.28, P 2.88, R 3.43, K 1.71, H 3.01, V 2.49, T 3.01, A 3.2
M23: D 2.09, S 1.79, A 2.48, H 3.04, N 1.53, Y 3.73, R 3.14, T 2.19, K 1, Q 1.55, G 3.36, C 2.45
